Patent publication CN114989305A (BEIJING WISDOMAB BIOTECHNOLOGY CO LTD, dated 2022)

Target: T1, HER2-His (Homo sapiens (Human), UniProt P04626 23-510)
T1 construct: Recombinant protein made in HEK293 cells; also called 重组的HER2-His; 重组HER2胞外区D1D2D3部分
Test: SPR (Biacore X100), antibody captured by anti-Fc on CM5 chip, HER2-His as analyte, single cycle

B1: MAb2 (antibody, V domains shown)
VH: EVQLVESGGGLVQPGGSLRLSCAASGFTFNDYTMDWVRQAPGKGLEWVADVNPNSGSSIYNERFKGRFTLSVDRSKNTLYLQMNSLRAEDTAVYYCARNLGPSFYFDYWGQGTLVTVSS
VL: DIQMTQSPSSLSASVGDRVTITCRASQNINNWLTWYQQKPGKAPKLLIYAASSRQTGVPSRFSGSGSGTDFTLTISSLQPEDFATYYCQQYAKLPVTFGQGTKVEIK
notes: The constant region of MAb2 is not known (human IgG1 or an IgG1 variant); also called 对照单克隆抗体; C6G9+L1A7 (inferred)
Kd: 5.31 nM

B2: BsAb7 (bispecific antibody)
chain 1: QVQLVESGGGVVQPGGSLRLSCAASGFVLRVNTVSWYRQAPGKQRELVALITSESNEYYDDSVKGRFTISRDNAKNTIYLHMNSLKPEDTGVYFCNFITTWGQGTQVTVSSGGGGSGGGGSGGGGSQVQLVESGGGVVQPGGSLRLSCAASGFVLRVNTVSWYRQAPGKQRELVALITSESNEYYDDSVKGRFTISRDNAKNTIYLHMNSLKPEDTGVYFCNFITTWGQGTQVTVSSDKTHTCPPCPAPESTRGPSVFLFPPKPKDTLMISRTPEVTCVVVDVSHEDPEVKFNWYVDGVEVHNAKTKPREEQYNSTYRVVSVLTVLHQDWLNGKEYKCKVSNKALPAPIEKTISKAKGQPREPQVCTLPPSRDELTKNQVSLSCAVKGFYPSDIAVEWESNGQPENNYKTTPPVLDSDGSFFLVSKLTVDKSRWQQGNVFSCSVMHEALHNHYTQKSLSLSPGK
chain 2: EVQLVESGGGLVQPGRSLRLSCAASGFTFNTYAMNWVRQAPGKGLEWVARIRSKYNNYATYYADSVKDRFTISRDDSKSIAYLQMNSLKTEDTAVYYCVRHGNFGNSYVSWFAYWGQGTLVTVSSASTKGPSVFPLAPSSKSTSGGTAALGCLVKDYFPEPVTVSWNSGALTSGVHTFPAVLQSSGLYSLSSVVTVPSSSLGTQTYICNVNHKPSNTKVDKKVEPKSCDKTHTCPPCPAPESTRGPSVFLFPPKPKDTLMISRTPEVTCVVVDVSHEDPEVKFNWYVDGVEVHNAKTKPREEQYNSTYRVVSVLTVLHQDWLNGKEYKCKVSNKALPAPIEKTISKAKGQPREPQVYTLPPCRDELTKNQVSLWCLVKGFYPSDIAVEWESNGQPENNYKTTPPVLDSDGSFFLYSKLTVDKSRWQQGNVFSCSVMHEALHNHYTQKSLSLSPGK
chain 3: QTVVTQEPSLTVSPGGTVTLTCRSSTGAVTTSNYANWVQQKPGQAPRGLIGGTNKRAPGVPARFSGSLLGGKAALTLSGVQPEDEAEYFCALWYSNLWVFGGGTKLTVLGQPKAAPSVTLFPPSSEELQANKATLVCLISDFYPGAVTVAWKADSSPVKAGVETTTPSKQSNNKYAASSYLSLTPEQWKSHRSYSCQVTHEGSTVEKTVAPTECS
Kd: 6.79 nM

B3: BsAb8 (bispecific antibody)
chain 1: EVQLVESGGGLVQPGGSLRLSCAASGRSFSSFQMGWFRQAPGKEREFVAASGWSGGPTYYWDSVIGRFTISTDNSKNTLYLQMNSLRAEDTAVYYCYEDRVLSGRPVRYWGQGTLVTVSSGGGGSGGGGSGGGGSEVQLVESGGGLVQPGGSLRLSCAASGRSFSSFQMGWFRQAPGKEREFVAASGWSGGPTYYWDSVIGRFTISTDNSKNTLYLQMNSLRAEDTAVYYCYEDRVLSGRPVRYWGQGTLVTVSSDKTHTCPPCPAPESTRGPSVFLFPPKPKDTLMISRTPEVTCVVVDVSHEDPEVKFNWYVDGVEVHNAKTKPREEQYNSTYRVVSVLTVLHQDWLNGKEYKCKVSNKALPAPIEKTISKAKGQPREPQVCTLPPSRDELTKNQVSLSCAVKGFYPSDIAVEWESNGQPENNYKTTPPVLDSDGSFFLVSKLTVDKSRWQQGNVFSCSVMHEALHNHYTQKSLSLSPGK
chain 2: B2 chain 2
chain 3: B2 chain 3
Kd: 9.69 nM
